Data taken from PMC11199634.

Target: LgBiT-PP1α, P62136
Assay: split-luciferase kinetic trace, competition with untagged SDS22
Conditions: chain shown with the change; 10 μM competitor added at t = 22 min; value read at the last time point (about 45 min); buffer control est. 160; parent: est. 83; read off a plot

Sequence of LgBiT-PP1α, P62136 (P62136 whole entry): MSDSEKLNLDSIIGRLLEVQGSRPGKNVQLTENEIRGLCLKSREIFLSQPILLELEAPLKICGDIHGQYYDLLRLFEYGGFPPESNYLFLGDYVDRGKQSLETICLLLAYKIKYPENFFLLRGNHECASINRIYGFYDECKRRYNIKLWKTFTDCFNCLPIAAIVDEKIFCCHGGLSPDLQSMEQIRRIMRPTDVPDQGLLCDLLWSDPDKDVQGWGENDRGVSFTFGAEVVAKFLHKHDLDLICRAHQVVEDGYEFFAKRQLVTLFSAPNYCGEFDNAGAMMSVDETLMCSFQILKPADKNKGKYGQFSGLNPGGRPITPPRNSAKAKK

response (% of value at 22min): 150
B1: SDS22 (tag-free, purified), Q15435 E192A (protein)
chain: MAAERGAGQQQSQEMMEVDRRVESEESGDEEGKKHSSGIVADLSEQSLKDGEERGEEDPEEEHELPVDMETINLDRDAEDVDLNHYRIGKIEGFEVLKKVKTLCLRQNLIKCIENLEELQSLRELDLYDNQIKKIENLEALTELEILDISFNLLRNIEGVDKLTRLKKLFLVNNKISKIENLSNLHQLQMLALGSNRIRAIENIDTLTNLESLFLGKNKITKLQNLDALTNLTVLSMQSNRLTKIEGLQNLVNLRELYLSHNGIEVIEGLENNNKLTMLDIASNRIKKIENISHLTELQEFWMNDNLLESWSDLDELKGARSLETVYLERNPLQKDPQYRRKVMLALPSVRQIDATFVRF
